Data taken from the domain aggregation screens of Martell et al. (2025).

Assay: soluble fraction after stress (log2 fold change); higher = more stays soluble; pooled small domains, quantitative proteomics
Settings: stress: pH 4
How it was run: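 With high-throughput quantitative proteomics, pooled custom libraries of small protein domains were measured after pH 4 stress. Each domain's soluble amount after the stress gives a fold change taken as aggregation propensity. Higher log2 values mean more of the domain stayed soluble.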

| Sequence | soluble fraction (log2) |
| --- | --- |
| HMFDITKEVLKQSGLYNLYKNDESLEGINRIQNIEELLNGIKDFVENNEKSQASVSSFLQDVALATDQ | -0.217 |
| HMFDKVSVNNLAEAIGRLDGIYQDVLRLYYVHELPSKEIGKILNINHLTVNTRLKRAREKLFKMLKEE | -0.812 |
| HMFDNPLSERDKEILNHISMGKSNKEIANQVGLAEQTIKNTISVILDKTFTSNRAQAASMATKNKW | -0.0659 |
| HMFDPTDLPEKQLMVYEIIKSNNGINMTNIASLLGFNKTTVDNAIRALKKKEIVVFKGTNRSGGYFNT | 0.193 |
| HMFEDEYLETMYAFYETDPQALVRTGDLASSLKVSPASATEMVQRLASKGFVDYIPYKGASLTELGLAM | -0.438 |
| HMFEDYLRMKGLSIVSFSKQTGIPISTLRNLNKIRYDKWKIRYLEELSNVLNKTIQEIIEELKNMG | -1.32 |
| HMFEFFKGIYSISLLKKDGIFFVTFKDENKEAVKHIFPEKPTALELGIKVMEMFEYKERYDGII | -0.226 |
| HMFEPLTDREREVLQALADGLSDKEIAERLYISPATVRTHITAILGKLDANSRLQAVVVAARHNLVTL | -0.926 |
| HMFERISELLTDEELAVYKRGRNANASSVPKHADIADYRRATGVEALFGYLYIKGEIDRINQLFELA | -0.635 |
| HMFESQYIGKIATAITDISAFSGRLKIYDENWEARTLGEDAPEIKKGAKVKIVRHDDLTMFVEKK | 0.087 |
| HMFETLVLALAQAWPAERGPVEALQFEGGRLSLQRSGFADEQVEALRQRLSSEGWTLQTEQGRLILNKAG | -1.11 |
| HMFFDSDTDIQNALNAENSIKKYQLFRTQTLYNSAQSDIDFVNQPEVKAKLFDALENLKNKLGFLAEPT | -0.4 |
| HMFGIEIPEEAGKLQDYTLTDDDLEGGNTLKEIQFPQGARVVIIRRDDKFIIPDGSVELQSGDQLLIIYGE | -1.81 |
| HMFGSKDVKRAIEDYAAAMSSQPRALSAPQRKVLIRHLATSGLLQLRGAAKIVADELGISRASVYNALKV | 0.193 |
| HMFHDPTMEETLINLKGITNEVLSLLSSSKIKKLEDLAEMSVPELRDIVENISDEEASALIMEARKPWF | -1.81 |
| HMFHGEGVQANNIQAYIVLKMAAVNGAEDALDTADEVSEKMSREDLETATQVLGQIFRKYLMELQSA | -1.12 |
| HMFIKVEVPDLTGMTLTEVRKALEEKNLKMGDIRPAGQTSLVAKVINQSPQAKMVVDEYSEVSIQFEE | 0.166 |
| HMFIMQTVALGSEGPDVRALQSILNRIGYNAGTVDGIFGSRTRQAVIAFQRNNGLAADGVAGPATWG | -0.0509 |
| HMFINITAITGNNYNTPDAARNALPNTYNKKIGLVFTYRDLTNRYRVYLYNSETSNYIPLDSYM | -1.28 |
| HMFIPGDSVRVHVKVVEGSNERIQMFEGVVIARQGSGVRENFTVRRISYGVGIERTFPVHSPRL | -0.62 |
| HMFISVDGLIHMGRTHLVILGGVEFARGDMIPETGEVVKSIGADSVVLELPDTGMRRTLNFV | -1.91 |
| HMFKINNIIVSGLSEKSNLQTSEEIKNILFENIFFIKKDVLFKILEKNNLINSFEIKKIYPDTIEVKIKKT | -0.104 |
| HMFKITNTLNKTAEVYLTIPENKKGKGKIMISVNGAFHELEAMTENDKIQSGAVVKVVRIENDNILIVET | -1.96 |
| HMFKMRVNGKEVIGMAITAKPQANPIDVADEIKKFVIDANTKLPSTMKLEVLYDATGIFRASISEVIS | -0.86 |
| HMFLDKDTLNQLYRFGIALTGNEQDSQDVLHTAIERFLRNKPQQINQQAAYIRTIMRNYWYDELRKLKTQ | -0.0981 |
| HMFLPETEVKSFFHRGITKISPSLAMDIADFFRMPFAVILKRALALEVISDEQYRSFMTVKPEHV | -0.0531 |
| HMFLSQQDINRANAASVTDMGDIIRRTFERNAAEINGLELSDAEKKDAVKQMATLATTALKTAAGAVNPY | 0.152 |
| HMFLSSEERRERIIEVLRQQDEVTVVELSHRLGVSEVTTRKDLQQLEEQGYLTRVRGGAVVSGRGQL | -0.458 |

| Sequence | soluble fraction (log2) |
| --- | --- |
| HMFMNFAEHLMALRKQRGWSQEELGSQIGVTRQTVSKWEMGQSTPELEKLVELSRLFGMSIDQLVGL | -0.00635 |
| HMFNISEKLKKYRNALGLTQTEVAEKIEITKPTYASYEKGKDISIGTLKKLADLFEVSFESFFSE | -0.336 |
| HMFNLFPHLSVLRNITLAPQKVKGLNRSESNEIAMSLLERVGIPEQSDKFPSQLSGGQQQRVAIARALAM | 0.22 |
| HMFPELSEEEQIIVSLLQKQPDGLQINTLVVESNIPVNRMSGILFELEMKGIIRMAAGGVYRLL | -0.785 |
| HMFQEGLVAPPAYTRPESFRGWEVPEILRSGNFPAIAKWQHEESLRLTRERRPAMLEAYERRT | -0.415 |
| HMFQNYTDAVVVASKTFFYNMPDESTRKSAYLIQGDRIMVEKSQRNFVYVTFTNEASGRTTTGWLKSDDLE | -0.00722 |
| HMFSDDEINRLKARDSILVNLRDSEKQVWELYTDGKTVQNIANQLNKHKQSISATIINIKNKISRKQNMLK | -0.0225 |
| HMFSGVQLGQAISEAIKRKNVSQKEVADHFGVKQPSVSGWIKNGRIDKKHLDKLIDYFSDVVTPSHFGIE | 0.241 |
| HMFSQDQIFLRSGEKIDARVIEVTPEFIKYKSKANPEGPLYSKKITDVLLITYANGTTEVYE | -0.749 |
| HMFTDAEIKQFAAAAVEVTKIQQDSTISAADKQPKMLAVVQSSGLPPEKFNQIGQAAAADPALQQRIQA | 0.159 |
| HMFTEPQKLVKRILNMLGHRYDDASIQARSDFQASNNYHKVQVKKKRESMEEYTAWLEEMYDAYRIN | 0.0985 |
| HMFTFEDMDKFESLLTTGLTDVQRRIYSLVTHDGKEYDLIAETLGISVEAVRMHMSRARKKIRENYKKID | -1.7 |
| HMFTIGENIRDLRLERAITQEQLAEQLNVSAPAVSKWERGEAYPDITLVPKLAEILGVSTDKLFGVD | -0.265 |
| HMFTKYSPDFKLSVILDMRKNNLGYGEVVRKYWNLDSYKESDRHRSQVRLWERIFLEEGVEGFM | -1.77 |
| HMFTLDDLQATYDIFERAEQNSDAMLAFQKVITAEGLDFDLTSPQGIVDFFKGAAPTEIYDLYEAS | -0.956 |
| HMFTNSTSSRQLTNSDDTLRLNISSQTRQMLPNGQPFGGSLSGKLLLVIYGATTRSIPAQTTPEKIVV | 0.105 |
| HMFTSVDVAPDLRTAKVFYSVLGRKKSDKEINIAINQKRKAFKKFMGPELHLKNIPDLHFYYD | 0.115 |
| HMFTYDLSERELTIIELVAKGLNNKELADTLFLSEGTIRNYLSTLLNKLDLRDRTQLAIFYYQHL | -2.93 |
| HMFVEEGSLKKITFDTYEFNITDNLKSLRVTYQGLLPNLFREGQGVVIEGILLEQNYIQANTVF | -0.328 |
| HMFVTGTTIKKLREEKRMTQGELAQMIGVSDKAVSKWETGRGLPDISLLEPLSRALGISVAELFAGQH | -0.0399 |
| HMFWEGYLAARREQFLKDQQVLLGNEFRSNPDFWLEVASKEWAVVEERLSTGADVSEEVQETMGLDF | -1.5 |
| HMFYNSSDNAYKILEINKSATVDEIKAAYRKMAKKYHPDKVIHLGQEHQKGAEEKFRQVQEAYEELQKERG | 0.297 |
| HMGAAVEVISLRYRSAAELLPIVRSLLSTEGKISADERTNSLIIVDSDEAVARVIHSLATLDT | -0.851 |
| HMGADGIPGKNGENGETSYVHFAYATSADGKTGFSTTDTVGKTYMGQYADFEKADSEDPTKYRWGKFQGP | ≥ 0.43 |
| HMGAFAIHTASELSAGMRIRHERFGPGVITGIDTANPASGARIQVDFDNGTSKTLLLSYAKFQI | 0.22 |
| HMGAGKVVDGVTYDFVFDVDVADGQPPLRLPYNRGEDVYQAAERFILRNELPATYREQIVNFIVQNTPG | -1.79 |
| HMGAISGEQREFYTVFRGHLNSHVGEFKVEDIENLLMKAKTEVPDLLEEEFLKMGEAILNRYRN | -0.966 |
